T1: NAIP (human, UniProt Q13075-1 1-1403)
T1 construct: NAIP, human, endogenous protein; for SPR pulled out of a human cell lysate with an antibody column; also called human NAIP; endogenous NAIP; source: purified from human cell lysate (NHS column with NAIP antibody LS-B455, dialysis, gel filtration); endogenous, human monocyte-derived macrophages (in cells and in lysate)
T1 sequence (looked up): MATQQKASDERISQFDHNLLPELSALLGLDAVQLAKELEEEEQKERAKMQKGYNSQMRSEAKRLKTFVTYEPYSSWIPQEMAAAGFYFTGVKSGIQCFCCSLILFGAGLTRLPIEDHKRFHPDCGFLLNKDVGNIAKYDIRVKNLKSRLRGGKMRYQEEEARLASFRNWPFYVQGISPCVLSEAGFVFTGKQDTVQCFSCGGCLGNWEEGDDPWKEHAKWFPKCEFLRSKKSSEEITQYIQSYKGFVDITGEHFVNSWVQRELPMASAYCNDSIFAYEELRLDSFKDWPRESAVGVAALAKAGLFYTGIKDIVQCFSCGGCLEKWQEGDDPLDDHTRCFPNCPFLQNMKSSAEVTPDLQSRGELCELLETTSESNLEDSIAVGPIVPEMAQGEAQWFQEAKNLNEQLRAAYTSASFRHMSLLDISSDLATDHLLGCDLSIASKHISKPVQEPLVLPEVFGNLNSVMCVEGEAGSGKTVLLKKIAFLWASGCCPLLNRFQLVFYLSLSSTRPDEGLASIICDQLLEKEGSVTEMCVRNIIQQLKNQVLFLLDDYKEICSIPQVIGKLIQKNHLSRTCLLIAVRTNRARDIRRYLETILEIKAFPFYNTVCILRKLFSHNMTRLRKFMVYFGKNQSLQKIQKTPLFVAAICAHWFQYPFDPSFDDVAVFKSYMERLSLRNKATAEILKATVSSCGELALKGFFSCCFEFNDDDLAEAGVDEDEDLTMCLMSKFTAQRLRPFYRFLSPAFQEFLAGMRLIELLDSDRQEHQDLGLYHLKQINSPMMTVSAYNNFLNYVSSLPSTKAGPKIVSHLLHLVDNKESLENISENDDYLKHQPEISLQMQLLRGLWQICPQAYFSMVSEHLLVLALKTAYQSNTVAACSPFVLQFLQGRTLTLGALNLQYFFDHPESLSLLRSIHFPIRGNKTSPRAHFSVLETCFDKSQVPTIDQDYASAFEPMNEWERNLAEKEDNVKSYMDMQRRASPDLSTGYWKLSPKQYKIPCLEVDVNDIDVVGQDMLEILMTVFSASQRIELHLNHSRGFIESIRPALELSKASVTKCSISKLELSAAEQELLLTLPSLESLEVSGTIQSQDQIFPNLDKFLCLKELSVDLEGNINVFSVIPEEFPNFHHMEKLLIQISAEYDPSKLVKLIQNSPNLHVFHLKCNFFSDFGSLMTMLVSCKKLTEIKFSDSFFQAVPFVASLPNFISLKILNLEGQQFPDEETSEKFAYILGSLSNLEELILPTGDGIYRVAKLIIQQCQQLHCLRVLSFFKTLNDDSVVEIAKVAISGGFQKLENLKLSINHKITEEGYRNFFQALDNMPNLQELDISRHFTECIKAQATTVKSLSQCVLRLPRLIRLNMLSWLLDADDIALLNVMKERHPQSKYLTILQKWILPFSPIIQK

B1: gp41TM/CT (domain or fragment)
chain: FIMIVGGLVGLRIVFAVLSIVNRVRQGYSPLSFQTHLPTPRGPDRPEGIEEEGGERDRDRSIRLVNGSLALIWDDLRSLCLFSYHRLRDLLLIVTRIVELLGRRGWEALKYWWNLLQYWSQELKNSAVSLLNATAIAVAEGTDRVIEVVQGACRAIRHIPRRIRQGLERILL

Tests used:
NAIP (human) [1] = biological target: NAIP (human) (UniProt Q13075); test: SPR; BIAcore 3000; NAIP amine-coupled to a CM5 chip; gp41 proteins (500ng, 1μg, 5μg, 10μg) injected at flow rate 10 ml/min for 240 s; flagellin as positive control; BIA EVALUATION 3.0
NAIP (human) [2] = biological target: NAIP (human) (UniProt Q13075); test: FRET or BRET; FRET between fluorophore-labelled antibodies (Alexa488 donor, Alexa546 acceptor) in monocyte-derived macrophages infected with HIV-1; dequenching of the donor after photobleaching of the acceptor
NAIP = biological target: T1, NAIP; test: SPR; BIAcore 3000; NAIP amine-coupled to a CM5 chip; gp41 proteins (500ng, 1μg, 5μg, 10μg) injected at flow rate 10 ml/min for 240 s; flagellin as positive control; BIA EVALUATION 3.0; conditions: both partners purified

| Molecule | Kd (NAIP (human) [1]) | koff (NAIP (human) [1]) | kon (NAIP (human) [1]) | FRET efficiency E (NAIP (human) [2]) | Kd (NAIP) | koff (NAIP) | kon (NAIP) |
| --- | --- | --- | --- | --- | --- | --- | --- |
| Flagellin (from UniProt P06179 1-495) (natural protein) | 24.7 pM | 9.81e-07 s⁻¹ | 39700 M⁻¹ s⁻¹ |  |  |  |  |
| HIV-1 glycoprotein 41 (gp41) (natural protein) |  |  |  | 24% |  |  |  |
| gp41 CT (from UniProt P04578 707-856) (domain or fragment) | 413 pM | 9.87e-06 s⁻¹ | 23900 M⁻¹ s⁻¹ |  |  |  |  |
| B1 |  |  |  |  | 1590 pM | 6.91e-05 s⁻¹ | 43500 M⁻¹ s⁻¹ |

From paper PMC8109768, “Differential recognition of HIV-stimulated IL-1β and IL-18 secretion through NLR and NAIP signalling in monocyte-derived macrophages” (PLoS Pathogens, 2021)
